Data: patent US20250084152A1 (DUKE UNIVERSITY, published 2025)

T1: B/MY04 N135R EHA2 (Influenza B virus B/Malaysia/2506/2004, UniProt P03461 374-538)
T1 chain: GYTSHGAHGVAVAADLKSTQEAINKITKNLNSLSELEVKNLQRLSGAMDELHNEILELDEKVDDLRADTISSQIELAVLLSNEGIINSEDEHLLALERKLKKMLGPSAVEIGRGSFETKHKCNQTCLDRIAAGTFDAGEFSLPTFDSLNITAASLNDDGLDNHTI

B1: S1V2-72 (antibody, V domains shown)
VH: QVQLVQSGAELKKPGASVKVSCKASGYTFTGNYIHWMRQVPGQGLEWMGWINPRTGDTHHAQKFQGRVDMTRDTSINTAYLELTRLESDDTALYYCARCVFATSQFDPWGQGTLVTVSS
VL: QSALTQPASVSGSPGQSITISCTGTNSDIGSHNLVSWYQQHPGKAPKVMIYDDSKRPSGVSNRFSGSKSGSTASLTISGLQSEDEADYYCCSYAGSSNWVFGGGTKLTLL
B2: C1_ID26079-156194 (antibody, V domains shown)
VH: QVQLVQSGAEVKKPGASVKVSCKASGYTFTGNYMHWVRQAPGQGLEWMGWINPDSGGTNYAQRFQGRVTMTRDTSISTAYMELSRLTSDDTAMYYCARVMLRSSGFDSWGQGTLVTVSS
VL: QSALIQPASVSGSPGQSITISCTGTSSDVGTYNLVSWYQQHPGKVPKLMIYEASERPSGVSNRFSGSKSGNTASLTISGLQAEDEADYYCCSYAGNSAWVFGGGTKLTVL
B3: M94 (antibody, V domains shown)
VH: QVQLVESGAEVKRPGASVKVACKASEYRFAASYIHWVRQAPGQGLEWMGWINLNSGDTKSSQKFQGWVTLTRDTSINTVYMEMTNLKFDDTAIYYCAKIILGGGGLDVWGQGTTVTVSS
VL: QSVLTQPRSVSGSLGQSVTISCSGTSTDVGSYEFVSWYQHHPGKAPKLIIYDVSKRPSGVPDRFSGSKSGNTASLAVSGLQSDDEADYYCSSYADTSNTWVFGGGTKLTVL
B4: 351-52 (antibody, V domains shown)
VH: QVQLAQSGAEVRKPGASVKVSCKASGYTFTDYYIHWVRQAPGQGLEWMGWINPDSGRTNYAQRFQGRVSMTSDTSISTAYMDLSRLRSDDTAVYFCAREGAHNYQHFDHWGQGTLVTVSA
VL: EIVLTQSPDTLSLSPGESATLFCRASQSVRSSYLAWYQQTPGQAPRLLIYGASSRATGIPDRFSGSGSGTDFTLTISRLEPEDFAVYYCQQFGRSSWTFGQGTKVEIK

How the values were obtained:
B/MY04 N135R EHA2 [1] = target: T1, B/MY04 N135R EHA2; assay: ELISA, rIgG (FIG. 20A)
B/MY04 N135R EHA2 [2] = target: T1, B/MY04 N135R EHA2; assay: ELISA, rIgG (FIG. 13)

Binder | binding result (B/MY04 N135R EHA2 [1]) | binding result (B/MY04 N135R EHA2 [2])
B1 | no binding | –
B2 | – | no binding
B3 | – | no binding
B4 | – | no binding
